According to the supplement of paper PMC12042874:
± gives the uncertainty stated by the source.

assay: amyloid nucleation score (Sup35N fusion, yeast selection) (log enrichment); library NNK3; higher = more nucleation; inactive = no reads after selection
Summary of the method: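 Growth for 7 days at 30°C on medium lacking adenine and uracil followed a 24-hour induction with 100 μM copper sulfate of psi-negative yeast expressing peptides of 20 random codons fused to Sup35N. Input and output plasmid inserts were sequenced with Illumina, and sequences with under 100 input reads were excluded. Nucleation score is the DiMSum log enrichment of output over input reads, centred on the mode score of non-aggregating sequences.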

| Substance | amyloid nucleation score |
| --- | --- |
| PYRGSPACMGDYGNQVGNGS | inactive |
| FFREYTSSRQMNICYLSFHG | inactive |
| PAVQGSKDAASSAERCACQR | inactive |
| AYELHKTPNGPSPSESLALI | inactive |
| CLNGPFVCLKYYVCFIAMMF | inactive |
| FGVIRHERMEMWRHRSNRCV | inactive |
| MLMVDDYEYMRFQMAGMVYM | inactive |
| LIISCMQFLVYKKCGFSMRH | inactive |
| YSPSLGSDQACSQLCSLSTF | inactive |
| NMHRNSSIRDRSVIRTWGMV | inactive |
| SFSRPCWLYWAGFLSVVYRC | inactive |
| FTCEPARFKDYQWNNEGYCL | inactive |
| VGTGVM | inactive |
| SMQGDRWFLVL | inactive |
| VVLGADGRLPF | inactive |
| PLGDARLTSRRDPPYRTTPL | 0.979 ± 0.17 |
| VFLNWRGMNHSLRAFNIESQ | inactive |
| SKFCSGSLFMIRCILGSRYL | inactive |
| YLSPEAQKLDQIDSMSADMV | inactive |
| EYGLNFSLNGYLSH | 0.601 ± 0.32 |
| IFSVFLLTMLEQRQKAHSLM | inactive |
| RHVLQILLSKKRDATMLPNY | inactive |
| CYNWHMFTEYCCSSSQARSM | 0.195 ± 0.57 |

| Substance | amyloid nucleation score |
| --- | --- |
| FYYLTKSGYAFRLSKTSP | inactive |
| GSTSRIPGVLVSKRRANMQH | inactive |
| YLGESWTVPALYVRSDMMFV | inactive |
| NLKSWFFCIVHCIRLHASVN | inactive |
| LRSWPVLHSAISTND | inactive |
| NGCSS | inactive |
| RTAVVWV | inactive |
| VGTLRSAGIIMVSRELVMRV | inactive |
| NIVERGSDLRGLCKTFNDIA | inactive |
| HVVFNIIFWYSGRIGLSDIT | 1.94 ± 0.084 |
| MYVQVS | -0.795 ± 0.91 |
| SNGELTVEHQGLQPLGEKRT | inactive |
| ICFGDKVRIKFFVPSIFSWY | inactive |
| GYRRKNRHSWTDPGITALNK | inactive |
| LGHVCILVQGGSKVRPTYGS | inactive |
| TLLDVPRSRLWSKFWLCVQL | inactive |
| EQTLGYNLIRAWLSKCCWMT | inactive |
| EITLYEQGNNRSLVGPERKS | inactive |
| RDEASLSYMSPCRYDYCNCF | 0.003 ± 1 |
| RLVDLAWRCYKIDKCLTCSS | -0.589 ± 0.93 |
| NFSFGGLIISGCIMRNWGLQ | 2.92 ± 0.077 |
| NLFYNEEDVLIQFVYQRTIW | inactive |
| IVFLLLVRLLVFIP | inactive |

| Substance | amyloid nucleation score |
| --- | --- |
| SDGSTRQSVRRVATPNVSRY | inactive |
| WSCESNDVHSCWWWLGGFNT | inactive |
| NNGFGSWGV | inactive |
| FNCGPCIVLEWYFTSVAGQG | 2.1 ± 0.071 |
| SILLLDSEGSMNLEAIV | inactive |
| LLIDCYVDYSC | 0.105 ± 0.24 |
| SSSTGAFGDSGGR | inactive |
| RADFLPVKNVMRFRCEFWKR | inactive |
| HLHVVHKIAS | -0.471 ± 0.82 |
| VNNSRGSAYSEVRSILRRYA | inactive |
| TFSASAVFTYDKGAPPLLEG | 0.999 ± 0.17 |
| SDRFYHCTFHAVTVRWKQRV | inactive |
| SWTFRTLSKCVYYSFCREMD | inactive |
| EHVKRVRIWNSVNLVIEYMA | 0.635 ± 0.19 |
| ILFIDSSFLIVR | inactive |
| CLYSSCALGIARDWVVLL | inactive |
| MCNWMNNLADSGLSASSVQV | inactive |
| IQMSNLNNTSLQVRRPRPCV | inactive |
| DWIKFHVTDW | inactive |
| SLDSYDTDLKGVCCQVFCIK | 3.24 ± 0.062 |
| SLVTYNVVRSKARNRWIELV | inactive |
| HAEFSEHITCGGSGPSCFVG | inactive |
| RLCSKRVKSTDGGSEHRMSW | inactive |

| Substance | amyloid nucleation score |
| --- | --- |
| ARTIELMECNISVNSIVWQG | 1.98 ± 0.089 |
| DVFSDSQVVENRV | inactive |
| NADCAYCLLFNLRWSVCVRT | -0.067 ± 0.36 |
| PLTFT | inactive |
| IICLK | inactive |
| DGNKNYDVKFIRLVTNI | inactive |
| LGFHTYRNLGKMHI | inactive |
| VISVGLVIKRLYSMWYLAAG | inactive |
| TRVLSINRNTPANRLIGVGC | inactive |
| TFPLAECRWIVWRLDDSLM | inactive |
| ICLVEISDGAFRKR | inactive |
| STELYVNLDQVSPYSVRQLT | inactive |
| RLLPFIGIYNFSKKWLSKAL | -0.313 ± 0.75 |
| NDSSQLLITI | inactive |
| YRIVLIFCEISNAMGVVQTS | inactive |
| NCNPFCIRLWFPNEYICW | inactive |
| GFCICEYDRCTIFSYNHYGA | 2.94 ± 0.054 |
| RGFNYKMLFSSDLD | inactive |
| VSSCAC | inactive |
| VRREYDWMPHHWMGTGLCKC | inactive |
| IRLCLLSIMWLNGWLSAIHA | inactive |
| ITIGTTIGDLSYR | inactive |
| YVRNQVNFSLAWLLITKLTK | 1.94 ± 0.085 |

| Substance | amyloid nucleation score |
| --- | --- |
| SNITAVYAVVTNIRWLYVRT | inactive |
| QIYSFFIWIEKTGVCRWLWA | inactive |
| PVFVCCRWHVVFGKNNGSAT | 1.47 ± 0.13 |
| NVFIHLFTILALGFHL | inactive |
| SQFTIVVTAVLVT | inactive |
| TLDINMNLRSLYVGQHYADI | inactive |
| VSWNWATGLRFRPLSCYGLV | inactive |
| WYVYTNIRNVSYDIFDNKKF | 1.49 ± 0.11 |
| NRMNKSEDGTSKCFESDRWG | inactive |
| FTLPKHFTRIL | inactive |
| INLFTAYAVSL | inactive |
| VPLMQGD | 3.16 ± 0.056 |
| FWVVISLMSSRVTVASDDHI | inactive |
| GYNNVESGNKYMLEDDFAFS | inactive |
| PELRRLTMESYIRNFWSVLS | inactive |
| CLLRSSCGWMCLRTGTHCVV | 0.729 ± 0.25 |
| KLQYYVALSAT | inactive |
| VDHSLVWDHWTLRDIPCKTG | inactive |
| KCTGYAGCCWWT | inactive |
| FVTAKQCVVCRQ | inactive |
| NVQSSGSRGAR | inactive |
| ILQTRKRVNVLNIVIWQIAF | 1.09 ± 0.18 |
| FDEDRREV | inactive |

| Substance | amyloid nucleation score |
| --- | --- |
| YSYICIILYWWCSRSAILPF | inactive |
| ISESN | inactive |
| TNTFYDHTNFMIVGLVPVRY | inactive |
| VNENLTGFIGV | inactive |
| YDLTFVGWMDYCNLPMVRLI | inactive |
| NVIMCLRCQY | 2.03 ± 0.1 |
| EFCIRRIM | inactive |
| FSGFTVR | inactive |
| LFYKREALMRGISSFKELSN | inactive |
| IHFMCMWVSNWYVLLVLKE | inactive |
| RPMKLRCASGWNVDTQFFDT | inactive |
| THEVISSFGMVFRNSNFCNS | inactive |
| WPLTCCDFSPSDSAIGRM | inactive |
| KGASIYMVTLFSSSNAKM | 1.28 ± 0.093 |
| RDVTC | inactive |
| TYEGITVVTFVSYSYAIREP | 0.703 ± 0.096 |
| ELDMLRYEVMVCNHDDGLCE | inactive |
| ASMYIMFTTVNKILFIEISD | 1.69 ± 0.056 |
| SARRNSRTFLSLFVFHLFRA | inactive |
| TFFEVGRQYELAVGKSRSSM | inactive |
| ASHHVDSTYDTYYWQHKAKK | inactive |
| ISQHMANFYNSVVVVCILED | 3.19 ± 0.075 |
| YMIATGTVGWNRLTLKCVVV | inactive |

| Substance | amyloid nucleation score |
| --- | --- |
| CNANGASAVKF | inactive |
| KANRFRVVMLGVDGVCAFQS | inactive |
| NVDGVVLDCLSSLDSEWGYV | inactive |
| TPYVTGTTEAVKMQHRCNVD | -0.188 ± 0.87 |
| THLVDYKLVL | inactive |
| NDSLTLIWNGGSGYDVIKFE | inactive |
| IPSIWMGISRK | inactive |
| LESFAGQAQWGCGSYQSFCL | inactive |
| YKTRTKKVS | inactive |
| MCWLLLIRWDK | inactive |
| VWDRRK | inactive |
| INVDWFSPFGVLKNSSK | inactive |
| VFLSCSCRWMVYGYNLTADC | inactive |
| NLSRLKRFYIANSR | inactive |
| CRACGRWCNSSYIYIY | inactive |
| WKAFNVTPFRGWVNVAVLA | inactive |
| LSVHTLHNG | inactive |
| QFCSSYWYQGTAYCLLPIAT | inactive |
| YQRLHSL | inactive |
